Results on five compounds are retold here after publication PMC4658561, “A mechanism of glucose tolerance and stimulation of GH1 β-glucosidases” (Scientific Reports, 2015).

Substitutions are numbered along the chain they refer to.

The test system of data set [1] is T1, O=[N+]([O-])c1ccc(O[C@@H]2O[C@H](CO)[C@@H](O)[C@H](O)[C@H]2O)cc1.
T1 construct: pET-22b(+) NdeI/XhoI, C-terminal His6 (kept), E. coli BL21(DE3), Ni-NTA purified; GH1, EC 3.2.1.21; residues V227, H228, N301, V302
Kind of data set: purified protein. In kind it is biochemical, uncultured bacterium. The note with it: no glucose, 50 mM Na2HPO4-citric acid buffer pH 7.0, optimal conditions.

In data set [2] the target is T2, Bgl1B (uncultured bacterium, UniProt D0VEC8, H228T).
T2 construct: pET-22b(+) NdeI/XhoI, C-terminal His6 (kept), E. coli BL21(DE3), Ni-NTA purified; GH1, EC 3.2.1.21; residues V227, H228, N301, V302
T2 sequence (D0VEC8 1-449 H228T): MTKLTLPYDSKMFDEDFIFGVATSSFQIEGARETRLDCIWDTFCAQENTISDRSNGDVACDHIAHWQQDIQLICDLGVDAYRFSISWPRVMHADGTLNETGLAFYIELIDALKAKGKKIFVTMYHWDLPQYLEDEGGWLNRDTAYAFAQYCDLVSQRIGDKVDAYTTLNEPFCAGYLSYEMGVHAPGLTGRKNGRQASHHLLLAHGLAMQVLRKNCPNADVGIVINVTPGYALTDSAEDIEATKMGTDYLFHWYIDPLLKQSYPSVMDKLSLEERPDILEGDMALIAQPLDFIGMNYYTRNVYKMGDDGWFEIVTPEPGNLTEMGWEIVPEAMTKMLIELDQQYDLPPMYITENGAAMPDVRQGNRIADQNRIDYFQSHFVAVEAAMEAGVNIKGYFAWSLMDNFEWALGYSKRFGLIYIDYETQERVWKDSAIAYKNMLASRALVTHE
Kind of data set: relative activity on pNPG versus glucose concentration. The conditions noted are these: pH […], stimulation at low concentration, transglycosylation acceptor. In kind it is biochemical.

Data set [3] addresses T3, Bgl1B (uncultured bacterium, UniProt D0VEC8).
T3 construct: pET-22b(+) NdeI/XhoI, C-terminal His6 (kept), E. coli BL21(DE3), Ni-NTA purified; GH1, EC 3.2.1.21; residues V227, H228, N301, V302
T3 sequence (D0VEC8 1-449): T2 sequence (D0VEC8 1-449 H228T) with T228H
Described as above. In kind it is biochemical. The note with it: pH […], product inhibition, competitive.

In a further data set the target is T4, Bgl1A (uncultured bacterium, UniProt D5KX75).
T4 construct: pET-22b(+) NdeI/XhoI, C-terminal His6 (kept), E. coli BL21(DE3), Ni-NTA purified; GH1, EC 3.2.1.21; residues T228, Q301, F302
T4 sequence (D5KX75 1-442): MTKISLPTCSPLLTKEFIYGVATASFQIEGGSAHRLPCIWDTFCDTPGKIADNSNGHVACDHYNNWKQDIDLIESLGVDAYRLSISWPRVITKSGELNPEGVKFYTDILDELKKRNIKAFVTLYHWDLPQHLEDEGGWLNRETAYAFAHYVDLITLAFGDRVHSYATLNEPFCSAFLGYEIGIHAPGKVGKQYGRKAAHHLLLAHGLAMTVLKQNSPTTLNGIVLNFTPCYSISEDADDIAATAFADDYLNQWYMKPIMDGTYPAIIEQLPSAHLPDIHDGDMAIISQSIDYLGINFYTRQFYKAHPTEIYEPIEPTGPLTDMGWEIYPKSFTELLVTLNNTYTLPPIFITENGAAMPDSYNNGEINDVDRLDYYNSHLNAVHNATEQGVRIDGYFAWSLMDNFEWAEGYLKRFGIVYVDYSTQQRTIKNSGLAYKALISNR
Described as above. In kind it is biochemical. The conditions noted are these: pH […], stimulation at low concentration, transglycosylation acceptor.

Data set [4] has as its system T5, O=[N+]([O-])c1ccc(O[C@@H]2O[C@H](CO)[C@@H](O)[C@H](O)[C@H]2O)cc1.
T5 construct: pET-22b(+) NdeI/XhoI, C-terminal His6 (kept), E. coli BL21(DE3), Ni-NTA purified; GH1, EC 3.2.1.21; residues T228, Q301, F302
Kind of data set: purified protein. The conditions noted are these: no glucose, 50 mM Na2HPO4-citric acid buffer pH 7.0, optimal conditions. In kind it is biochemical, uncultured bacterium.

As to Bgl1B (uncultured bacterium; H228T), in data set [1], the Km worked out at 360 ± 30 µM, the Vmax amounted to 10.1 µM/min and the kcat/Km was found to be 24200 M⁻¹ s⁻¹.
Take `OC[C@H]1OC(O)[C@H](O)[C@@H](O)[C@@H]1O` (stereo partly drawn) [glucose]: the relative activity result at Bgl1B [2] is “only B:H228T exhibited glucose stimulation, essentially distinctive from wild-type Bgl1B”; at Bgl1B [3], “the activity of Bgl1B was persistently inhibited by glucose”; on Bgl1A, “Bgl1A displayed high glucose tolerance, and was stimulated by low concentrations of glucose”.
Turning to “Bgl1B (uncultured bacterium; N301Q/V302F)”, in data set [1], the Km was determined as 830 ± 70 µM, the Vmax was determined as 8.84 µM/min and the kcat/Km was 2860 M⁻¹ s⁻¹.
Taken in the same sequence, the figures for Bgl1B (uncultured bacterium) were 270 ± 20 µM, 12.6 µM/min and 74700 M⁻¹ s⁻¹.
Turning to Bgl1A (uncultured bacterium), in data set [4], the Km was 690 ± 70 µM, the Vmax was found to be 2.7 µM/min and the kcat/Km was 35500 M⁻¹ s⁻¹.
